Laboratory results reported in patent publication US10869832B2, “Substance delivery device and substance delivery method using the same” (priority 2013, dated 2020).

System: OVA-specific IgG
Experiment: OVA-specific IgG by ELISA after single-dose immunization
Type: in vivo
Conditions: SD rats, two weeks after injection, single dose (IM 500 μg OVA, MN 200 μg OVA)
Procedure: 4-week-old SD rats are divided into four groups. Rats of the first three groups are injected with saline, OVA, and chitosan hydrogel loaded with OVA by intramuscular inoculation, respectively. The fourth group is administrated with OVA through the microneedle patch of the present embodiment. In detail, the SD rat is weighed, anesthetized, and shaved. 200 μl of saline is injected into the thigh of each SD rat of the first group (“IM saline” group). 500 μg of OVA in the same volume are injected into the thigh of each SD rat of the second group (“IM-OVA” group). 200 μl of chitosan hydrogel loaded with 500 μg of OVA (mixed in the same ratio as the microneedle patch) are injected into the thigh of each SD rat of the third group (“IM-OVA+CS” group). A microneedle patch encapsulating 200 μg of OVA is applied the each SD rat of the fourth group (“MN-OVA” group). The blood of each SD rat of each group sampled at the 0, 2nd and 4th week after injection is centrifuged for 5 minutes at 3000 rpm to separate serum from blood cells in the plasma. IgG levels in the collected serum are then evaluated by ELISA.

B1: IM-OVA: 500 μg of OVA (ovalbumin) injected intramuscularly (protein, UniProt P01012 2-386, looked up)
Ovalbumin: GSIGAASMEFCFDVFKELKVHHANENIFYCPIAIMSALAMVYLGAKDSTRTQINKVVRFDKLPGFGDSIEAQCGTSVNVHSSLRDILNQITKPNDVYSFSLASRLYAEERYPILPEYLQCVKELYRGGLEPINFQTAADQARELINSWVESQTNGIIRNVLQPSSVDSQTAMVLVNAIVFKGLWEKAFKDEDTQAMPFRVTEQESKPVQMMYQIGLFRVASMASEKMKILELPFASGTMSMLVLLPDEVSGLEQLESIINFEKLTEWTSSNVMEERKIKVYLPRMKMEEKYNLTSVLMAMGITDVFSSSANLSGISSAESLKISQAVHAAHAEINEAGREVVGSAEAGVDAASVSEEFRADHPFLFCIKHIATNAVLFFGRCVSP
OVA-specific IgG level: much lower than the MN-OVA and IM-OVA+CS group
